The target of the test is 41F17. The experiment in a line: SPR; avidity. A general note: Surface plasmon resonance follows binding to a sensor surface in real time, without labels.

B1: BKPyV VLP genotype Ia (VP1 virus-like particles) (complex)
chain: MAPTKRKGECPGAAPKKPKEPVQVPKLLIKGGVEVLEVKTGVDAITEVECFLNPEMGDPDENLRGFSLKLSAENDFSSDSPERKMLPCYSTARIPLPNLNEDLTCGNLLMWEAVTVQTEVIGITSMLNLHAGSQKVHEHGGGKPIQGSNFHFFAVGGEPLEMQGVLMNYRSKYPDGTITPKNPTAQSQVMNTDHKAYLDKNNAYPVECWVPDPSRNENARYFGTFTGGENVPPVLHVTNTATTVLLDEQGVGPLCKADSLYVSAADICGLFTNSSGTQQWRGLARYFKIRLRKRSVKNPYPISFLLSDLINRRTQRVDGQPMYGMESQVEEVRVFDGTERLPGDPDMIRYIDKQGQLQTKML
Regarding B1, the Kd came to 0.34 nM.

Values taken from paper PMC9887757 (2023).
